Test: soluble on expression in E. coli; label from the status in PepcDB or PDB records

Row | Sequence | soluble on expression in E. coli
1 | MGSDKIHHHHHHMAETFPLLAAQPIYDNKNRFYAVELLYRSALNLTAETVGDTAATSEVVFNLCAGITSQTEHYDATAFINVSSEFLVSQSFLPLEPDKVVIELVERIKPTRAVVNAVARWYEKGFRFALDDFEFDPAWEPLLQYASYIKVDVSTLTLAQARVFKQKLSGFKGKWLAERVEDEATKQAYEELGFELFQGYYFAKPAIVYGTRLEPSSLQLAKVLSLCFEEEPDLTELSRVISEDPQLSVCLLKIVNSPLYPTASPITRVKDVIMRLGIEKLRRWIALIGAVTASSPEASRMVLVRAQMCYELAKWKSSPGLDADQCYFVGLLSGVDIMLGVDKASFFEKLPLSEQTRKAVEDCDGPMGQCLRIALKLERLVRMKEGLDKVDSRLLTTYQSVSTKVQELFNTI | not soluble
2 | MSDNALSPQKNHRRLAETLVDRFAQRMRDGVLVRGEKLPSEIHIMEAEGVSRTVVRDALSRMQAAGLVETRHGVGTFVLDMPPPEGFSVGPATIASVADVLNLLEFRLSLEVEAAGLAAQRRSPEALLELKRAFDALLEGPQKSGTTINADFQFHLKIAKASGNAYLIDIMKHLGTKLIPRTRMNSAYTGQSDRSAYLAGINAEHRQIYNAIAEGNVDAARAAMYLHLNGSRMRLRRTQALYSD | not soluble
3 | KRLQKKIDNGELDSFPEVKEVDVECCGQHEVCERDSLLAAVSKQIEYYDDEELDTFIGRAPEDYTPEEADKFRDVFYTMQDTDVAGWVRSLQLRGISLPDEIKDEVFLVVGERRIH | not soluble
4 | MGSDKIHHHHHHMTRIVESLAEISDLYDAVFCDLWGCVHDGITAFDEAIEALRAFKAKGGTVLLLTNAPRPRASVATQLDDFGIPRDCWDVIATSGDSARAAMLSGAVGTKVWHIGEPEHAPFFAPMDLVADAVDVTRVPLDEAEGIVCTGPFDPKADPSELRPQFLLAKTRRLKLLCANPDIVVDRGESREWCAGALAKLYTEMGGESLYFGKPHPPIYDLARRRLVQMGKPTPDDRILAIGDGIVTDVPGGIGENIDTLFITGGLARDETGTDHQPDPAKLARFLTDAQLEPTYSVGMLR | not soluble
5 | MKLPISTISPIHYIKSVVSSRETRSESNKSRRTFANTEWNKIIRETLYLETIYIPLDATSHSPDIIFQLQSPVEPKVLTVGVACKGRWKSEGIGWSDIIDEAKKFLDPLYDQVLSSAMDYHHCMLIIVSTKLSLNVSNELGN | not soluble
6 | MEEEEYEQIPQENPPEELSQDPVLELSGGLREKEQKTPRRLRLILMGKTGSGKSATGNSILGRDVFESKLSTRPVTKTSQRRSREWAGKELEVIDTPNILSPQVSPEVADAICQAIVLSAPGPHAVLLVTQLGRFTDEDQQVVRRLQEVFGVGVLGHTILVFTRKEDLAGGSLEDYVRETNNQALAWLDVTLARRHCGFNNRAQGEEQEAQLRELMEKVEAIMWENEGDYYSNKAYQYTQQNFRLKELQERQVSQGQGSEDVPGEESWLEGLSQIQKESEEAHRCLLGKADL | soluble
7 | MLVLFEVAAGYAVFKLSNEKKLKNVDNIWEEFSTAEKAQENLQLVSFKKFKTTAGAVEATSEITEGKLSKTLKKLLKSSVDETEKLAVGDAKLGNLIKEKLSLNCVHDSSINELMRGVRAHIEDLLAEHKEEMNAMNLAVAHSLARYKVKFNPEKIDTMIVQAVSLLDDLDKELNNYVMRVREWYGWHFPELGKTIQDHQAYAKIIKAIGMRQNCINTDLSSILPEELEEKVKEDAEISMGTDISDIDLIHIKGLCDQVIELSAYRAQLFDYLKNRMTALAPNLTVLLGELVGARLISHAGSLVSLAKAPASTIQILGAEKALFRALKTKKDTPKYGLIYHAQLITQAPPKVKGKMARKLAAKCSLATRIDALSDESATNEIGIECRAALENVLRTESERGPSKNKSFGSHRHDKYEFKSETYEYDASADTPASRKHKRFDDNEESTNAIKKMKIEEVKEEDEAEPEKKKKKKEKKAKKADTDSDEE | not soluble
8 | MGSDKIHHHHHHMSQPPLPAVCTQAASALLPVAIDYPAALALRQMAMQHDDYPKYLLAPEVSALLHYVPDLHRRMLLATLWNTGARINEALALTRGDFSLAPPYPFVQLATLKQRAEKAARTAGRMPSGSQPHRLVPLSDNQYVSELQMMVATLKIPLERRNRRTGRTEKARLWEITDRTVRTWIGEAVEAAAADDVTFSVPVTPHTFRHSYAMHMLYAGIPLKVLQALMGHKSVSSTEVYTKVFALDVAARHRVQFQMPGADAVAMLKGGS | not soluble
9 | PLGSQYFLKVLIPSYAAGSIIGKGGQTIVQLQKETGATIKLSKSKDFYPGTTERVCLIQGTIEALNAVHGFIAEKIREMPQNVAKTEPVSILQPQTTVNPDRANQVKIIVPNSTAGLIIGKGGATVKAIMEQSGAWVQLSQKPDGINLQNRVVTVSGEPEQNRKAVELIIQKIQEDPQ | soluble
10 | MSKKFEGSVAPRERINISYVPKTDGQTAEVELPLNMLVVGDTGNTQETSSLDERQAVSVNKHNFGAVMAEAAIGLNFTVPATLKGSTTDDEMNVALNIKSLDDFSPDSVARQVPEVNKLLELREALTALKGPMGNLPAFRTQLQALLENEESREQLLKEIGQVSNK | soluble
11 | MYKLNLDIQAFLANDWQQAPKVFKGAFPDFEDPIAADELAGLACEEEVSSRVVVTKGNDWEVISGPFEDYDRFGETHWQLLVQAVNHWYPESQPLVEAFRFLPDWRFDDLMVSFATPQGGVGPHIDNYDVFIIQGEGQRRWTVGPKGNYQRRGGVTTSPLIEDFEPIIDVVLEKGDVLYIPPGFPHQGETLTLALSYSMGYRAPSQQELAGQIADQLMDEDKGHKRFIAVDGAASHGTVSLAEQQGIMQLIRDLCNDTDNVVKVLGKLLSQNRFDLDIQEDESIDADALVEALNEGAVLMRIGGLKVLKMEGDSQARLFVAGESVIIEGASEEELIEVSNSVNVNAELAQLPHWQGFFVQMLQKGYFYLGED | soluble
12 | MGHHHHHHSHMTKHPPNRRGISFEVGAQLEARDRLKNWYPAHIEDIDYEEGKVLIHFKRWNHRYDEWFCWDSPYLRPLEKIQLRKEGLHEEDGSSEFQINEQVLACWSDCRFYPAKVTAVNKDGTYTVKFYDGVVQTVKHIHVKAFSKDQNIVGNARPKETDHKSLSSSPDKREKFKEQRKATVNVKKDKEDKPLKTEKRPKQPDKEGKLICSEKGKVSEKSLPKNEKEDKENISENDREYSGDAQKTRQTPFHSSYCCGFKLSNFATNNIGTEKKENIKRM | not soluble
13 | MFSEKFFTASFGPDDEQPAIKAAANNAAPIFHLFILEFLLFKYQLLSKDSEYPYLLIRAGDNNRPKKAERRDKASKMWSRNQEKHGSKKSEKSNQNKNFYVREFFSFGASSKKFPNHVFRDVF | not soluble
14 | MIHSLFFHNNTKGTPSMKHPIDSISAEIEDEQAYVDKLFGKLDEEVVAANQRLNDVMLHVDPANPDAEALVRRETEYHALNEKIDRLNIAQLGLVFGRIDVTAQRTDLIDNWVAGTDNVDRRYIGRMGLDDRQNDYRTLLLDWRAPLARPFYLATTAHPEGVLHRRHIRTQGRSVVGVDDEVLSGVSAESAHSERADVVSETALYRAMCSARTGHMHSIVETIQREQDDIIRDPTRGVMVVEGGPGTGKTAVALHRVAYLLYTWRDQLAKTGVLIVGPNRSFLDYISRVLPELGETGVVLSTVGDLYPGISGTAVEDSLAREIKGSEEMVTVLRRLVQEYQQIPSEPFTIKIDGLELTVTPDIVKKARTRARRSRRPHNEARPLFTEHLTELLSHQMADLIGADPMGGKNLLSAADIAQLHDELLEESVVAEIVDEYWPQLTPQDTLTSLLESQNMISTVAYDYDEETQEALWRQQGSPWAASDAALLDELAVIIGVPDPEKERAEQEKAWREQIKDAQDALEILTGSANTDLDDESDAEILSAHDVIDAETLARRQEVRDIRSTAQRAREDLAWAYGHVIVDEAQELTPMEWRMVMRRCPSRWMTLVGDTAQTSSPAGVDSWAEALEPFVSGRYVTHHLTINYRTPAEIMEWANKVLHVFAPDAVGSTALRQSGTPVRFENSDAHAIEIAQKLRQDDPSRLTAIIGPDSMANNEIFGVSDIKGLEYDHVVVTNPIDIVNGSPQGWQDLYVALTRATQSLCIIGDLPELS | not soluble
15 | MPTNQDLQLAAHLRSQVTTLTRRLRREAQADPVQFSQLVVLGAIDRLGGDVTPSELAAAERMRSSNLAALLRELERGGLIVRHADPQDGRRTRVSLSSEGRRNLYGNRAKREEWLVRAMHACLDESERALLAAAGPLLTRLAQFEEP | soluble
16 | LMPLRDIVIFPTMVQPLFVGRRFSIRAIEEANKKDKLIFLVLQKDKDVEEPKEEDIYKVGVVAYILRTVPIEDARVKVLVQGLKRGVIKKLEWKEDHYVAQVDVIEERDIPPESQTIEDKALIKAVKESIDKLVSLGKQIIPDLVVLIKELEEPGKLADMVASILDIKSSQAQEILETFDPRERLKK | soluble
17 | MEKKKVAEWLAQGSIAVPKLLLGHYKQLGLGEGELVLLLHMQSFFEEGVLFPTPAELAERMTVSAAECMEMVRRLLQKGMIAIEEHTDEQGIRNEKYTLEPLWEKLVHHLYTQAAQQGELGRQEEEES | soluble
18 | MAHHHHHHMILKEETVLRKTNAENLAAVRNLNLWGEGLTDVSIVSRLPRIEVLALAANKLTTLSPFAACTQLEELYLRRNNVASMLEIKYLRHLPKLHTLWLMDNPCARHPHYRQIVILCCRHLRHLDETEVSEKERAEAEKLLPEGMLQEMLESESAEAAVGTANKAQLQNRTPVSERKQPMGEVVQGGAIHETGAGRERGHRVTSSDTSGRGPSSAPERRQGSADDGLAQTAVQVQRAMFSSIMALVPELAVQTIEALQKELAEELCRRGKRLPPVVRDRT | not soluble
19 | MLDVPVLLAAVSPDSPCGDDLEYDAAFLELERIAQGQPERQMGDAVLPAEPPEWPRVRALASELFGRSKDLRVANLLLQSNVALDGLDGLADGLLLVRELLGQYWDGVYPLLDADDDNDPTFRINALTGLVAEPLLQLVWAIPLVRSRAFGPVNLRAALNAAGLQRFASETLSPEQIAGAFADADADALAATRRALDGAQEHALAIESGVAERVGSAQGLDLGPLRQLLRQALQVFDLYGPQGAGESLAPGAEAVADEQVGAAPVAAVAAPAPRASGEIANREDVLRQLDRLLEYYVRHEPSSPVPVLLKRAKTLVTADFAEIVRNLIPDGISQFETLRGPESE | not soluble
20 | GMREEKIREALNAHWQASAAGDFDAEHDIYDDDAICDYPQSGERILGRMNLQALRSHHPGKPAGFEVRRIQGEGNLWITEYSISYNGRPAYTVSIMEFRNGKVVHETQYFSDPFEAPGWRSQWVQQIG | soluble
21 | MEGIIDKENERVRRFFALLDDMEKKVERLARDNRPPFNGERFLTDRELSGMLKISRRCLQDYRDQGRIPYIQLGGKILYRQSDIERLLEENYHPALV | not soluble
22 | MGSDKIHHHHHHPWRLLTPDQRYQKRQSQLKSTMSDFFTWCESVHALPQSKFGRAIDYALSQREAMENVLLDGRLELSNNRVERAVKELVIGRKNWLFSTSFKGARSSGIILSVMRSAEANGLDCRKYLEYLFTELPNLSVPGDSKALQDYLPWSSQVRAICAR | not soluble

— the DeepSol protein solubility set
